Test results: patent US20050118674A1, “Engineering of Controlled Deamidation Rates in Peptides, Proteins, and Similar Structures” (priority 2003, published 2005)

Experiment: First-order nonenzymatic deamidation of pentapeptides in Tris buffer
Assay type: physicochemical
Conditions: 0.15 M Tris HCl; for First-Order Deamidation Halftimes of GlyXxxAsnYyyGly: pH 7.4, 37.0° C., Asn pentapeptides; for First-Order Deamidation Halftimes of GlyXxxGlnYyyGly: pH 7.4, 37.0 ° C., Gln pentapeptides, 52 values measured, rest derived from surface fitting
In short: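 First-order deamidation rates determined for XxxAsnYyy and XxxGlnYyy pentapeptides in 0.15 M Tris buffer, pH 7.4, 37° C. Not all values were measured directly: several Asn rates were estimated and most Gln rates came from surface fitting.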

Substance | First-Order Deamidation Halftimes of GlyXxxAsnYyyGly | First-Order Deamidation Halftimes of GlyXxxGlnYyyGly
GlyLysAsnAspGly (GKNDG; printed: GlyLysAsnAspGly) | 34.0 days | 
GlyLysAsnCysGly (GKNCG; printed: GlyLysAsnCysGly) | 49.0 days | 
GlyLysAsnGluGly (GKNEG; printed: GlyLysAsnGluGly) | 72.5 days | 
GlyLysAsnGlyGly (GKNGG; printed: GlyLysAsnGlyGly) | 1.02 days | 
GlyLysAsnHisGly (GKNHG; printed: GlyLysAsnHisGly) | 10.5 days | 
GlyLysAsnIleGly (GKNIG; printed: GlyLysAsnIleGly) | 313 days | 
GlyLysAsnLeuGly (GKNLG; printed: GlyLysAsnLeuGly) | 119 days | 
GlyLysAsnLysGly (GKNKG; printed: GlyLysAsnLysGly) | 53.5 days | 
GlyLysAsnMetGly (GKNMG; printed: GlyLysAsnMetGly) | 60.9 days | 
GlyLysAsnPheGly (GKNFG; printed: GlyLysAsnPheGly) | 70.1 days | 
GlyLysAsnProGly (GKNPG; printed: GlyLysAsnProGly) | 4940 days | 
GlyLysAsnSerGly (GKNSG; printed: GlyLysAsnSerGly) | 15.6 days | 
GlyLysAsnThrGly (GKNTG; printed: GlyLysAsnThrGly) | 58.1 days | 
GlyLysAsnTrpGly (GKNWG; printed: GlyLysAsnTrpGly) | 98.1 days | 
GlyLysAsnTyrGly (GKNYG; printed: GlyLysAsnTyrGly) | 96.7 days | 
GlyLysAsnValGly (GKNVG; printed: GlyLysAsnValGly) | 246 days | 
GlyLysGlnAlaGly (GKQAG; printed: GlyLysGlnAlaGly) |  | 4300 days
GlyLysGlnArgGly (GKQRG; printed: GlyLysGlnArgGly) |  | 2300 days
GlyLysGlnAspGly (GKQDG; printed: GlyLysGlnAspGly) |  | 5900 days
GlyLysGlnCysGly (GKQCG; printed: GlyLysGlnCysGly) |  | 1000 days
GlyLysGlnGluGly (GKQEG; printed: GlyLysGlnGluGly) |  | 5400 days
GlyLysGlnGlyGly (GKQGG; printed: GlyLysGlnGlyGly) |  | 650 days
GlyLysGlnHisGly (GKQHG; printed: GlyLysGlnHisGly) |  | 6100 days
GlyLysGlnIleGly (GKQIG; printed: GlyLysGlnIleGly) |  | 5400 days
GlyLysGlnLeuGly (GKQLG; printed: GlyLysGlnLeuGly) |  | 5300 days
GlyLysGlnLysGly (GKQKG; printed: GlyLysGlnLysGly) |  | 4000 days
GlyLysGlnMetGly (GKQMG; printed: GlyLysGlnMetGly) |  | 4000 days

Substance | First-Order Deamidation Halftimes of GlyXxxAsnYyyGly | First-Order Deamidation Halftimes of GlyXxxGlnYyyGly
GlyLysGlnPheGly (GKQFG; printed: GlyLysGlnPheGly) |  | 7000 days
GlyLysGlnProGly (GKQPG; printed: GlyLysGlnProGly) |  | 7700 days
GlyLysGlnSerGly (GKQSG; printed: GlyLysGlnSerGly) |  | 4200 days
GlyLysGlnThrGly (GKQTG; printed: GlyLysGlnThrGly) |  | 4100 days
GlyLysGlnTrpGly (GKQWG; printed: GlyLysGlnTrpGly) |  | 10000 days
GlyLysGlnTyrGly (GKQYG; printed: GlyLysGlnTyrGly) |  | 8800 days
GlyLysGlnValGly (GKQVG; printed: GlyLysGlnValGly) |  | 5700 days
GlyMetAsnAlaGly (GMNAG; printed: GlyMetAsnAlaGly) | 22.1 days | 
GlyMetAsnAmCysGly | 33.8 days | 
GlyMetAsnArgGly (GMNRG; printed: GlyMetAsnArgGly) | 58.8 days | 
GlyMetAsnAspGly (GMNDG; printed: GlyMetAsnAspGly) | 26.4 days | 
GlyMetAsnCysGly (GMNCG; printed: GlyMetAsnCysGly) | 49.6 days | 
GlyMetAsnGluGly (GMNEG; printed: GlyMetAsnGluGly) | 72.4 days | 
GlyMetAsnGlyGly (GMNGG; printed: GlyMetAsnGlyGly) | 1.04 days | 
GlyMetAsnHisGly (GMNHG; printed: GlyMetAsnHisGly) | 10.2 days | 
GlyMetAsnIleGly (GMNIG; printed: GlyMetAsnIleGly) | 275 days | 
GlyMetAsnLeuGly (GMNLG; printed: GlyMetAsnLeuGly) | 113 days | 
GlyMetAsnLysGly (GMNKG; printed: GlyMetAsnLysGly) | 60.4 days | 
GlyMetAsnMetGly (GMNMG; printed: GlyMetAsnMetGly) | 56.9 days | 
GlyMetAsnPheGly (GMNFG; printed: GlyMetAsnPheGly) | 61.9 days | 
GlyMetAsnProGly (GMNPG; printed: GlyMetAsnProGly) | 9300 days | 
GlyMetAsnSerGly (GMNSG; printed: GlyMetAsnSerGly) | 15.2 days | 
GlyMetAsnThrGly (GMNTG; printed: GlyMetAsnThrGly) | 43.6 days | 
GlyMetAsnTrpGly (GMNWG; printed: GlyMetAsnTrpGly) | 92.7 days | 
GlyMetAsnTyrGly (GMNYG; printed: GlyMetAsnTyrGly) | 74.0 days | 
GlyMetAsnValGly (GMNVG; printed: GlyMetAsnValGly) | 211 days | 
GlyMetGlnAlaGly (GMQAG; printed: GlyMetGlnAlaGly) |  | 4400 days

Substance | First-Order Deamidation Halftimes of GlyXxxAsnYyyGly | First-Order Deamidation Halftimes of GlyXxxGlnYyyGly
GlyMetGlnArgGly (GMQRG; printed: GlyMetGlnArgGly) |  | 5100 days
GlyMetGlnAspGly (GMQDG; printed: GlyMetGlnAspGly) |  | 6200 days
GlyMetGlnCysGly (GMQCG; printed: GlyMetGlnCysGly) |  | 900 days
GlyMetGlnGluGly (GMQEG; printed: GlyMetGlnGluGly) |  | 5800 days
GlyMetGlnGlyGly (GMQGG; printed: GlyMetGlnGlyGly) |  | 600 days
GlyMetGlnHisGly (GMQHG; printed: GlyMetGlnHisGly) |  | 4400 days
GlyMetGlnIleGly (GMQIG; printed: GlyMetGlnIleGly) |  | 5000 days
GlyMetGlnLeuGly (GMQLG; printed: GlyMetGlnLeuGly) |  | 5000 days
GlyMetGlnLysGly (GMQKG; printed: GlyMetGlnLysGly) |  | 4600 days
GlyMetGlnMetGly (GMQMG; printed: GlyMetGlnMetGly) |  | 3500 days
GlyMetGlnPheGly (GMQFG; printed: GlyMetGlnPheGly) |  | 6600 days
GlyMetGlnProGly (GMQPG; printed: GlyMetGlnProGly) |  | 7300 days
GlyMetGlnSerGly (GMQSG; printed: GlyMetGlnSerGly) |  | 4100 days
GlyMetGlnThrGly (GMQTG; printed: GlyMetGlnThrGly) |  | 3800 days
GlyMetGlnTrpGly (GMQWG; printed: GlyMetGlnTrpGly) |  | 9400 days
GlyMetGlnTyrGly (GMQYG; printed: GlyMetGlnTyrGly) |  | 8200 days
GlyMetGlnValGly (GMQVG; printed: GlyMetGlnValGly) |  | 5000 days
GlyPheAsnAlaGly (GFNAG; printed: GlyPheAsnAlaGly) | 24.2 days | 
GlyPheAsnAmCysGly | 29.8 days | 
GlyPheAsnArgGly (GFNRG; printed: GlyPheAsnArgGly) | 61.2 days | 
GlyPheAsnAspGly (GFNDG; printed: GlyPheAsnAspGly) | 27.4 days | 
GlyPheAsnCysGly (GFNCG; printed: GlyPheAsnCysGly) | 46.5 days | 
GlyPheAsnGluGly (GFNEG; printed: GlyPheAsnGluGly) | 62.4 days | 
GlyPheAsnGlyGly (GFNGG; printed: GlyPheAsnGlyGly) | 1.15 days | 
GlyPheAsnHisGly (GFNHG; printed: GlyPheAsnHisGly) | 10.2 days | 
GlyPheAsnIleGly (GFNIG; printed: GlyPheAsnIleGly) | 287 days | 
